# Measured values: IntAct's records for PubMed 22904282
# B1: RNA polymerase-binding transcription factor CarD (Mycobacterium tuberculosis (strain ATCC 25618 / P9WJG3 (parent)
# chain: MIFKVGDTVVYPHHGAALVEAIETRTIKGEQKEYLVLKVAQGDLTVRVPAENAEYVGVRDVVGQEGLDKVFQVLRAPHTEEPTNWSRRYKANLEKLASGDVNKVAEVVRDLWRRDQERGLSAGEKRMLAKARQILVGELALAESTDDAKAETILDEVLAAAS
# B2: DNA-directed RNA polymerase subunit beta (Mycobacterium tuberculosis (strain ATCC 25618 / P9WGY9 (parent)
# chain: MLEGCILADSRQSKTAASPSPSRPQSSSNNSVPGAPNRVSFAKLREPLEVPGLLDVQTDSFEWLIGSPRWRESAAERGDVNPVGGLEEVLYELSPIEDFSGSMSLSFSDPRFDDVKAPVDECKDKDMTYAAPLFVTAEFINNNTGEIKSQTVFMGDFPMMTEKGTFIINGTERVVVSQLVRSPGVYFDETIDKSTDKTLHSVKVIPSRGAWLEFDVDKRDTVGVRIDRKRRQPVTVLLKALGWTSEQIVERFGFSEIMRSTLEKDNTVGTDEALLDIYRKLRPGEPPTKESAQTLLENLFFKEKRYDLARVGRYKVNKKLGLHVGEPITSSTLTEEDVVATIEYLVRLHEGQTTMTVPGGVEVPVETDDIDHFGNRRLRTVGELIQNQIRVGMSRMERVVRERMTTQDVEAITPQTLINIRPVVAAIKEFFGTSQLSQFMDQNNPLSGLTHKRRLSALGPGGLSRERAGLEVRDVHPSHYGRMCPIETPEGPNIGLIGSLSVYARVNPFGFIETPYRKVVDGVVSDEIVYLTADEEDRHVVAQANSPIDADGRFVEPRVLVRRKAGEVEYVPSSEVDYMDVSPRQMVSVATAMIPFLEHDDANRALMGANMQRQAVPLVRSEAPLVGTGMELRAAIDAGDVVVAEESGVIEEVSADYITVMHDNGTRRTYRMRKFARSNHGTCANQCPIVDAGDRVEAGQVIADGPCTDDGEMALGKNLLVAIMPWEGHNYEDAIILSNRLVEEDVLTSIHIEEHEIDARDTKLGAEEITRDIPNISDEVLADLDERGIVRIGAEVRDGDILVGKVTPKGETELTPEERLLRAIFGEKAREVRDTSLKVPHGESGKVIGIRVFSREDEDELPAGVNELVRVYVAQKRKISDGDKLAGRHGNKGVIGKILPVEDMPFLADGTPVDIILNTHGVPRRMNIGQILETHLGWCAHSGWKVDAAKGVPDWAARLPDELLEAQPNAIVSTPVFDGAQEAELQGLLSCTLPNRDGDVLVDADGKAMLFDGRSGEPFPYPVTVGYMYIMKLHHLVDDKIHARSTGPYSMITQQPLGGKAQFGGQRFGEMECWAMQAYGAAYTLQELLTIKSDDTVGRVKVYEAIVKGENIPEPGIPESFKVLLKELQSLCLNVEVLSSDGAAIELREGEDEDLERAAANLGINLSRNESASVEDLA
# partner: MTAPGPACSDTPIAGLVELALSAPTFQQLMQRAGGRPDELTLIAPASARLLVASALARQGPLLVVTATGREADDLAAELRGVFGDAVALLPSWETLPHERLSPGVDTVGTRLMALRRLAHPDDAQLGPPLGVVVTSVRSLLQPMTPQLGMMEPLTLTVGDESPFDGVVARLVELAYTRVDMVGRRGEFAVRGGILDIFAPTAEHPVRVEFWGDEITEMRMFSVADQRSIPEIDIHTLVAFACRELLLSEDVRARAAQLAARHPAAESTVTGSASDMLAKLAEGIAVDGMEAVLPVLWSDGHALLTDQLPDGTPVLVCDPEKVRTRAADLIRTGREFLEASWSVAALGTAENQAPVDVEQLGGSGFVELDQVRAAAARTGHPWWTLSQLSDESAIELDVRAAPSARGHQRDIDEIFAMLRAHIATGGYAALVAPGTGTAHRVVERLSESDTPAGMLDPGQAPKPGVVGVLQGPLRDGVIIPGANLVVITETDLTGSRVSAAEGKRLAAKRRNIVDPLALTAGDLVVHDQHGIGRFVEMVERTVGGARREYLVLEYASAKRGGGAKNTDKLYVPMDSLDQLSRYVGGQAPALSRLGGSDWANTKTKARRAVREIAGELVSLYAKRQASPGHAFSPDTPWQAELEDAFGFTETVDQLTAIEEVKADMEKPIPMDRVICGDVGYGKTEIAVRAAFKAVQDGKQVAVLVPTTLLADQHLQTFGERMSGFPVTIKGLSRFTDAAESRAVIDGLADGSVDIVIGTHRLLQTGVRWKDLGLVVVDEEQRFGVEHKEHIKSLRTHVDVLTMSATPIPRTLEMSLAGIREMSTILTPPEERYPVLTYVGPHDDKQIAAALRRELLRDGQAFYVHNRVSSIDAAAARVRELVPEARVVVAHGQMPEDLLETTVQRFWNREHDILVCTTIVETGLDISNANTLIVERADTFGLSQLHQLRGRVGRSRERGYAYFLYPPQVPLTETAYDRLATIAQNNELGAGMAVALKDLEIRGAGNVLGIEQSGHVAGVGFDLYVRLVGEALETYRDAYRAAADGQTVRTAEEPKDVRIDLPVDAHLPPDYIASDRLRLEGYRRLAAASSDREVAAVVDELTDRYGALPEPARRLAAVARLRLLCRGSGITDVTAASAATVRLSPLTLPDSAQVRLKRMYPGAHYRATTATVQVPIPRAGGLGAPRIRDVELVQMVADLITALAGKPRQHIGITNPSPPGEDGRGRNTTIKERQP
# B3: DNA-directed RNA polymerase subunit beta (Mycobacterium tuberculosis (strain ATCC 25618 / P9WGY9 (parent)
# chain: B2 chain
# Variants of: B1
# Details: with rpob_myctu rpoB
row,Variant,effect of a mutation on the interaction
1,MIFKVGDTVVYPHHGAALVEAIETRTIKGEQKEYLVLKVAQGDLTVEVPAENAEYVGVRDVVGQEGLDKVFQVLRAPHTEEPTNWSRRYKANLEKLASGDVNKVAEVVRDLWRRDQERGLSAGEKRMLAKARQILVGELALAESTDDAKAETILDEVLAAAS [R47E],decreasing interaction strength
2,MIFKVGDTVVYPHHGAALVEAIETETIKGEQKEYLVLKVAQGDLTVRVPAENAEYVGVRDVVGQEGLDKVFQVLRAPHTEEPTNWSRRYKANLEKLASGDVNKVAEVVRDLWRRDQERGLSAGEKRMLAKARQILVGELALAESTDDAKAETILDEVLAAAS [R25E],decreasing interaction strength

# Variants of: B2
# Details: with mfd_myctu mfd
row,Variant,effect of a mutation on the interaction
1,S149A,decreasing interaction strength
2,I147A,disrupting interaction
3,E138R,disrupting interaction

# Variants of: B3
# Details: with card_myctu carD
row,Variant,effect of a mutation on the interaction
1,S149A,decreasing interaction
2,I147A,disrupting interaction
3,E138R,disrupting interaction
